Data reported in patent publication US20260234238A1 (GEOVISTA, published 2026).
Where a chain is given by its changes, count along the chain named. Several values for one entry are separate records, joined by “and”; a condition that tells them apart may be missing. Equal values may be shown once.

T1: recombinant histidine-tagged canine interleukin-13 (cIL-13) (canine, UniProt Q9N0W9 19-131, N-linked glycans attached to asparagine residues at positions 38, 48, 56, and 71)
T1 sequence: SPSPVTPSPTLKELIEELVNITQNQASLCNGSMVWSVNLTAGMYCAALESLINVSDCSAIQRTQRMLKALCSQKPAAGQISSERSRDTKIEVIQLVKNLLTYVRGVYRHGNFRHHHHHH

B1: 32A10-#20 mouse monoclonal antibody (antibody, V domains shown)
VH: EVQLQQSGPELVKPGASVKVSCKTSGYSFTDYPIYWVRQSHGESLEWIGYIDPYNGGTTYNQNFKDKATLTVDKSSSTAFMHLNSLTSEDSAVYFCATAVVATDVMENWGQGTSVTVSS
VL: DIVLTQSQKFMSTSVGDRVSITCKASQNVRNAVAWFQQKPGQSPKALIYLASNRYTGVPDHFTGSGSGTDFTLTISNVQSEDLADYFCLQHWNYPLTFGAGTKLELK
notes: also called Mouse 32A10; Parental antibody (Mouse 32A10)
B2: Chimeric 32A10 CO (antibody, V domains shown)
VH: B1 VH with E1Q, Q5K, N84Y
VL: B1 VL
notes: also called Chimeric antibody (CO type)
B3: Ab4 (antibody, V domains shown)
VH: EVQLVQSGAEVKKPGASVKVSCKTSGYTFIDYPMYWVRQAPGAGLEWMGYIDPYNGATSYNQNFKGRVTLTADKSTSTAYMELSSLRAGDIAVYYCATAVVATDVMENWGQGTLVTVSS
VL: EIVMTQSPASLSLSQEERVTITCRASQNVRNALAWYQQKPGQAPKLLIYLTSNRYTGVPSRFSGSGSGTDFTFTISSLEPEDVAVYYCLQHWNYPLTFGAGTKVELK
notes: Caninized antibody
B4: Ab1 (antibody, V domains shown)
VH: B3 VH
VL: B3 VL with M4L, R24K, L33V, Y36F, L46A, T51A, F73L, V85D, Y87F
notes: Caninized antibody
B5: Ab3 (antibody, V domains shown)
VH: B3 VH with K12V, T28S, I30T, M34I, M48I, A57G, S59T, G66D
VL: B3 VL
notes: Caninized antibody
B6: Ab5 (antibody, V domains shown)
VH: B3 VH with N63K, K65Q, K74T, T98R
VL: B3 VL
notes: Caninized antibody
B7: Ab6 (antibody, V domains shown)
VH: B3 VH with K12V, T28S, I30T, M34I, M48I, A57G, S59T, G66D
VL: B3 VL with N28S, N31S, L50G, N93S
notes: Caninized antibody
B8: Ab8 (antibody, V domains shown)
VH: B3 VH with N63K, K65Q, K74T, T98R
VL: B3 VL with N28S, N31S, L50G, N93S
notes: Caninized antibody
B9: Ab21 (antibody, V domains shown)
VH: B3 VH with K12V, T28S, I30T, M34I, M48I, A57G, S59T, G66D
VL: B3 VL with M4L, R24K, L33V, Y36F, L46A, T51A, F73L, V85D, Y87F
notes: Caninized antibody
B10: Ab22 (antibody, V domains shown)
VH: B3 VH with K12V, T28S, I30T, M34I, M48I, A57G, S59T, G66D
VL: DIVLTQTPLSLSVSPGETASISCKASQNVRNAVAWFRQKPGQSPQALIYLASNRYTGVPDRFSGSGSGTDFTLRISRVEAEDTGDYFCLQHWNYPLTFGAGTKVELK
notes: Caninized antibody
B11: Ab10 (antibody, V domains shown)
VH: B3 VH
VL: B10 VL with L4M, V29L, V33L, A51V, T56P, D85V, F87Y, N93Q
notes: Caninized antibody
B12: Ab9 (antibody, V domains shown)
VH: B3 VH with N63K, K65Q, K74T, T98R
VL: B10 VL
notes: Caninized antibody
B13: Ab11 (antibody, V domains shown)
VH: B3 VH with N63K, K65Q, K74T, T98R
VL: B10 VL with L4M, V29L, V33L, A51V, T56P, D85V, F87Y, N93Q
notes: Caninized antibody
B14: Ab12 (antibody, V domains shown)
VH: B3 VH with K12V, T28S, I30T, M34I, M48I, A57G, S59T, G66D
VL: DIVMTQTPLSLSVSPGETASISCKASQSLRSALAWFRQKPGQSPQRLIYLVSNRYPGVPDRFSGSGSGTDFTLRISRVEAEDTGVYYCLQHWQFPLTFGAGTKVELK
notes: Caninized antibody
B15: Ab14 (antibody, V domains shown)
VH: B3 VH with N63K, K65Q, K74T, T98R
VL: B14 VL
notes: Caninized antibody
B16: Ab23 (antibody, V domains shown)
VH: B3 VH with K12V, T28S, I30T, M34I, M48I, A57G, S59T, G66D
VL: B14 VL with S28N, S31N, R46A, F94Y
notes: Caninized antibody
B17: Ab24 (antibody, V domains shown)
VH: B3 VH
VL: B10 VL
notes: Caninized antibody
B18: Ab2 (antibody, V domains shown)
VH: B3 VH with N63K, K65Q, K74T, T98R
VL: B3 VL with M4L, R24K, L33V, Y36F, L46A, T51A, F73L, V85D, Y87F
notes: Caninized antibody

Target: T1, recombinant histidine-tagged canine …
Assay: cell-based or functional assay

Binder | TF-1 cell proliferation inhibition IC50 (Average) | TF-1 cell proliferation inhibition IC50 (Test 1) | TF-1 cell proliferation inhibition IC50 (Test 2) | TF-1 cell proliferation inhibition IC50 (Test 3)
B1 | 437 ng/ml and 2.91 nM | 494 ng/ml and 3.29 nM | 492 ng/ml and 3.28 nM | 325 ng/ml and 2.17 nM

Target: T1, recombinant histidine-tagged canine …
Assay: cell-based or functional assay
Remark: another data set of the same source

Binder | Inhibitory Activity on TF-1 Cell Proliferation IC50
B1 | 3.97 nM

Target: T1, recombinant histidine-tagged canine …
Assay: ELISA, cIL-13-coated plate

Binder | EC50
B1 | 0.0694 µg/mL and 0.463 nM

Target: T1, recombinant histidine-tagged canine …
Assay: cell-based or functional assay
Remark: another data set of the same source

Binder | inhibition of IL-13-dependent TF-1 cell proliferation, IC50
B1 | 2.9 to 4.2 nM

Target: T1, recombinant histidine-tagged canine …
Assay: ELISA, His-tagged cIL-13 on nickel-coated plate
Experimental: In one embodiment of the present disclosure, recombinant canine IL-13 (cIL-13) protein with a histidine tag was dispensed onto nickel-coated plates (Thermo Fisher, #15442) at 100 ng/100 μL per well and incubated at room temperature for 1 hour. The plates were then washed three times with 1×PBST, and serial dilutions of the chimeric antibodies in 1×PBS were added and incubated at room temperature for 1 hour to allow antigen-antibody binding. After three washes with 1×PBST, an HRP-conjugated secondary antibody that cross-reacts with canine antibodies was diluted 1:100 in casein buffer and added at 100 μL per well, followed by incubation at 37° C. for 30 minutes. The HRP-conjugated secondary antibody used may be Jackson ImmunoResearch, #115-036-071, and the casein buffer may be Thermo Fisher Scientific, #37528; however, these examples are not intended to limit the scope of the present disclosure. After another three washes with 1×PBST, TMB was added to initiate color development, and the reaction was terminated by the addition of an equal volume of 1.0 N sulfuric acid.

Binder | EC50
B1 | 0.218 µg/mL and 1.45 nM
B2 | 0.162 µg/mL and 1.08 nM

Target: T1, recombinant histidine-tagged canine …
Assay: ELISA, His-tagged cIL-13 on nickel plate
Experimental: A conventional ELISA method was used to assess the antigen reactivity of the caninized antibodies. The inventors of the present invention coated 96-well nickel plates with His-tagged cIL-13 at a concentration of 1 μg/mL and incubated the plates at room temperature for 1 hour. Wells were washed three times using 200 μL of wash buffer per well; the wash buffer consisted of 1×PBS containing 0.1% Tween-20. In one embodiment of the present disclosure, diluted antibodies were added to the wells at 100 μL per well and incubated again at room temperature for 1 hour. The dilution buffer used was a 1:1 mixture of 25 mL of 1× casein solution and 25 mL of 1×PBS. Next, 50 μL of HRP-conjugated goat anti-human IgG was diluted in 10 mL of dilution buffer and dispensed at 100 μL per well, followed by incubation at room temperature for 1 hour. The wells were then washed three times with 200 μL of wash buffer. TMB substrate (50 μL per well) was added. The plates were incubated at room temperature for 10 minutes. The reaction was stopped by adding 50 μL per well of 1 N sulfuric acid as a stop solution, and absorbance was measured at 450 nm using a spectrophotometer.

Binder | EC50
B3 | 0.0572 mg/L
B4 | 0.0564 mg/L
B5 | 0.0459 mg/L
B6 | 0.0765 mg/L
B7 | 0.246 mg/L
B8 | 12.4 mg/L
B9 | 0.122 mg/L
B10 | 0.137 mg/L
B11 | 0.0819 mg/L
B12 | 0.0926 mg/L
B13 | 0.111 mg/L
B14 | 4.39 mg/L
B15 | 1.78 mg/L
B16 | 0.108 mg/L
B17 | 0.134 mg/L
B18 | 0.0782 mg/L

Target: T1, recombinant histidine-tagged canine …
Assay: cell-based or functional assay
Remark: another data set of the same source

Binder | TF-1 cell proliferation inhibition IC50
B3 | 71.5 nM
B5 | 52.7 nM
B6 | 34.2 nM
B9 | 1.13 nM
B10 | 0.98 nM
B16 | 35.2 nM
B17 | 4.09 nM
